Measurements: PMC6536502, “Structural insights into DNA recognition by AimR of the arbitrium communication system in the SPbeta phage” (Cell Discovery, 2019)

T1: AimR-V129C (Bacillus phage SPbeta, UniProt O64094 1-386, C71S;C107S;C213S;C275S;C304S;C347S;V129C)
T1 sequence: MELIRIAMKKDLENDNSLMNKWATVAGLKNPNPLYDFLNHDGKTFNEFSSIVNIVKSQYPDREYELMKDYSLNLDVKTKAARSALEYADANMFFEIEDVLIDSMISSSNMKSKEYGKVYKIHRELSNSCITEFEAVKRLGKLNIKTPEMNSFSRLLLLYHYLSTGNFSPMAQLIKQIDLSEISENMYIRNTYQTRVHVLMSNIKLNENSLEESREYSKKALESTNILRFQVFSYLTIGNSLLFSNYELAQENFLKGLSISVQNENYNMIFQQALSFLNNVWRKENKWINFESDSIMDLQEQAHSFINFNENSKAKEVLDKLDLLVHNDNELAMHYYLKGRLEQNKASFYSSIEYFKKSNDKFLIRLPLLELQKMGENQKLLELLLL

T2: AimR (Bacillus phage SPbeta, UniProt O64094 1-386)
T2 sequence: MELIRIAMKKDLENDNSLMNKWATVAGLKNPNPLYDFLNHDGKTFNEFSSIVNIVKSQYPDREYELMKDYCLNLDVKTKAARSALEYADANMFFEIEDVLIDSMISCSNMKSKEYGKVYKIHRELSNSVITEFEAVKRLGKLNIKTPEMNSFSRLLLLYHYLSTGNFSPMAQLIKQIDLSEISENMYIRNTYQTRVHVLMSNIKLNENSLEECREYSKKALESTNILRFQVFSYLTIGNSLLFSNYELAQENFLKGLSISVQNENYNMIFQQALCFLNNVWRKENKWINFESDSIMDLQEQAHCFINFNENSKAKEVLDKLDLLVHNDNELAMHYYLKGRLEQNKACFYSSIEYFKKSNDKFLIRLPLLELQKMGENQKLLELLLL

B1: 37 bp DNA (dsDNA)
DNA 1: ATCACTTAAATATTAGGTTTTAATAACATCTAGTGAT
DNA 2: ATCACTAGATGTTATTAAAACCTAATATTTAAGTGAT
B2: arbitrium peptide GMPRGA (peptide)
peptide: GMPRGA
notes: mature arbitrium hexapeptide of the SPbeta phage, cut from the precursor encoded by the aimP gene; also called arbitrium hexapeptide; GMPRGA peptide; source: synthetic peptide, bought: GLS Biochem
B3: AimR protein from the SPbeta phage, full length, wild type (natural protein, UniProt O64094 1-386, looked up)
chain: MELIRIAMKKDLENDNSLMNKWATVAGLKNPNPLYDFLNHDGKTFNEFSSIVNIVKSQYPDREYELMKDYCLNLDVKTKAARSALEYADANMFFEIEDVLIDSMISCSNMKSKEYGKVYKIHRELSNSVITEFEAVKRLGKLNIKTPEMNSFSRLLLLYHYLSTGNFSPMAQLIKQIDLSEISENMYIRNTYQTRVHVLMSNIKLNENSLEECREYSKKALESTNILRFQVFSYLTIGNSLLFSNYELAQENFLKGLSISVQNENYNMIFQQALCFLNNVWRKENKWINFESDSIMDLQEQAHCFINFNENSKAKEVLDKLDLLVHNDNELAMHYYLKGRLEQNKACFYSSIEYFKKSNDKFLIRLPLLELQKMGENQKLLELLLL
notes: AimR of Bacillus phage SPbeta, full length (DBD residues 1-48, CTD residues 49-386), codon-optimized cDNA in pET21b; also called SPbeta AimR; wild-type AimR; source: E. coli BL21 (DE3), purified (Ni-NTA, anion exchange Source 15Q, SEC Superdex-200)
B4: AimR-V129C (C71S/C107S/C213S/C275S/C304S/C347S/V129C), labelled with Alexa Fluor 488 and Cy5 (natural protein, SPbeta phage, UniProt O64094 1-386, looked up)
chain: MELIRIAMKKDLENDNSLMNKWATVAGLKNPNPLYDFLNHDGKTFNEFSSIVNIVKSQYPDREYELMKDYSLNLDVKTKAARSALEYADANMFFEIEDVLIDSMISSSNMKSKEYGKVYKIHRELSNSCITEFEAVKRLGKLNIKTPEMNSFSRLLLLYHYLSTGNFSPMAQLIKQIDLSEISENMYIRNTYQTRVHVLMSNIKLNENSLEESREYSKKALESTNILRFQVFSYLTIGNSLLFSNYELAQENFLKGLSISVQNENYNMIFQQALSFLNNVWRKENKWINFESDSIMDLQEQAHSFINFNENSKAKEVLDKLDLLVHNDNELAMHYYLKGRLEQNKASFYSSIEYFKKSNDKFLIRLPLLELQKMGENQKLLELLLL
modifications: Alexa Fluor 488 C5 maleimide or Cy5 maleimide conjugated to Cys129 (double-labeled protein fraction collected)
notes: AimR of Bacillus phage SPbeta, full length with six Cys-to-Ser changes and V129C, in pET15b; His tag removed with drICE as for the other mutant proteins; also called dye-labeled protein; source: E. coli BL21 (DE3), purified as the mutant proteins; dye-conjugated and purified on a Source-Q column
B5: AimR-N166C (C71S/C107S/C213S/C275S/C304S/C347S/N166C) (natural protein, SPbeta phage, UniProt O64094 1-386, looked up)
chain: MELIRIAMKKDLENDNSLMNKWATVAGLKNPNPLYDFLNHDGKTFNEFSSIVNIVKSQYPDREYELMKDYSLNLDVKTKAARSALEYADANMFFEIEDVLIDSMISSSNMKSKEYGKVYKIHRELSNSVITEFEAVKRLGKLNIKTPEMNSFSRLLLLYHYLSTGCFSPMAQLIKQIDLSEISENMYIRNTYQTRVHVLMSNIKLNENSLEESREYSKKALESTNILRFQVFSYLTIGNSLLFSNYELAQENFLKGLSISVQNENYNMIFQQALSFLNNVWRKENKWINFESDSIMDLQEQAHSFINFNENSKAKEVLDKLDLLVHNDNELAMHYYLKGRLEQNKASFYSSIEYFKKSNDKFLIRLPLLELQKMGENQKLLELLLL
notes: AimR of Bacillus phage SPbeta, full length with six Cys-to-Ser changes and N166C, in pET15b; His tag removed with drICE as for the other mutant proteins; source: E. coli BL21 (DE3), purified as the mutant proteins (gel filtration)
B6: C2A (dsDNA)
DNA 1: AATTAAATATTAGGTTTTAATAACATCTAGT
DNA 2: ACTAGATGTTATTAAAACCTAATATTTAATT
B7: C2G (dsDNA)
DNA 1: AGTTAAATATTAGGTTTTAATAACATCTAGT
DNA 2: ACTAGATGTTATTAAAACCTAATATTTAACT
B8: A1G/T31'C (dsDNA)
DNA 1: GCTTAAATATTAGGTTTTAATAACATCTAGT
DNA 2: ACTAGATGTTATTAAAACCTAATATTTAAGC
B9: C2T (dsDNA)
DNA 1: ATTTAAATATTAGGTTTTAATAACATCTAGT
DNA 2: ACTAGATGTTATTAAAACCTAATATTTAAAT
B10: A1T/T31'A (dsDNA)
DNA 1: TCTTAAATATTAGGTTTTAATAACATCTAGT
DNA 2: ACTAGATGTTATTAAAACCTAATATTTAAGA

What was measured:
AimR-V129C = molecular target: T1, AimR-V129C; test: smFRET; 1 uM DNA; EMSA: 25 mM Tris-HCl pH 8.0, 150 mM NaCl, 5 mM MgCl2, 5 mM DTT, 0.1 mg/ml BSA, 10% glycerol, 50 ug/ml salmon sperm DNA, 4 C, 15 min; smFRET: 20 mM phosphate pH; settings: protein: recombinant; tags: 6xHis removed by drICE; Alexa Fluor 488 and Cy5 on C129; chain copies: 2
[1] = molecular target: B3; test: crystal structure; AimR (~270 µM) incubated with arbitrium peptide GMPRGA (2.7 mM), PDB 6JG9; settings: both partners purified
[2] = molecular target: the molecule itself; test: crystal structure; full-length AimR with the 31 bp DNA fragment and 5 mM MgCl2, 2.10 Å, PDB 6JG8
[3] = molecular target: the molecule itself; test: FRET or BRET; single-molecule FRET in solution between Alexa488 and Cy5 on Cys129 of the protomers, ~150 pM labelled AimR V129C, 25 °C, pH 7.4, 20 mM phosphate, 100 mM NaCl, 0.01% Tween 20; peptides titrated in
[4] = molecular target: the molecule itself; test: cross-linking; disulfide cross-linking of Cys166 by o-phenanthroline copper complex, AimR-N166C ~1 mg/ml, room temperature 30 min, nonreducing SDS-PAGE; alone or with DNA, unrelated peptide or arbitrium peptide
AimR = molecular target: T2, AimR; test: EMSA; 5 mM Mg2+; EMSA: 25 mM Tris-HCl pH 8.0, 150 mM NaCl, 5 mM MgCl2, 5 mM DTT, 0.1 mg/ml BSA, 10% glycerol, 50 ug/ml salmon sperm DNA, 4 C, 15 min; smFRET: 20 mM phosphate pH; settings: protein: recombinant; tags: C-terminal 8xHis; chain copies: 2; label: FAM

Binder | binding signal (AimR) | also measured
B1 | – | binding result (AimR-V129C): binds
B2 | – | binding result [1]: binds
B3 | – | stoichiometry N [2]: 2
B4 | – | binding result [3]: binds
B5 | – | stoichiometry N [4]: 2
B6 | ~8 fold lower binding than WT DNA | –
B7 | ~9 fold lower binding than WT DNA | –
B8 | ~19 fold lower affinity than WT DNA | –
B9 | ~42 fold lower binding than WT DNA | –
B10 | ~7 fold lower affinity than WT DNA | –
